Molecular target: carcinoembryonic antigen (CEA) (UniProt P06731 35-685)
Assay: electrochemical impedance spectroscopy (aptasensor); PBS; linear 0.77-14 ng/mL, LOD 0.45 ng/mL, saturated above 21 ng/mL; PBS pH 7.4 or undiluted human serum; surface blocked with 1% BSA; K3[Fe(CN)6] and KCl listed as reagents; binding temperature not stated
Conditions: protein: commercial

carcinoembryonic antigen (CEA), sequence (P06731 35-685): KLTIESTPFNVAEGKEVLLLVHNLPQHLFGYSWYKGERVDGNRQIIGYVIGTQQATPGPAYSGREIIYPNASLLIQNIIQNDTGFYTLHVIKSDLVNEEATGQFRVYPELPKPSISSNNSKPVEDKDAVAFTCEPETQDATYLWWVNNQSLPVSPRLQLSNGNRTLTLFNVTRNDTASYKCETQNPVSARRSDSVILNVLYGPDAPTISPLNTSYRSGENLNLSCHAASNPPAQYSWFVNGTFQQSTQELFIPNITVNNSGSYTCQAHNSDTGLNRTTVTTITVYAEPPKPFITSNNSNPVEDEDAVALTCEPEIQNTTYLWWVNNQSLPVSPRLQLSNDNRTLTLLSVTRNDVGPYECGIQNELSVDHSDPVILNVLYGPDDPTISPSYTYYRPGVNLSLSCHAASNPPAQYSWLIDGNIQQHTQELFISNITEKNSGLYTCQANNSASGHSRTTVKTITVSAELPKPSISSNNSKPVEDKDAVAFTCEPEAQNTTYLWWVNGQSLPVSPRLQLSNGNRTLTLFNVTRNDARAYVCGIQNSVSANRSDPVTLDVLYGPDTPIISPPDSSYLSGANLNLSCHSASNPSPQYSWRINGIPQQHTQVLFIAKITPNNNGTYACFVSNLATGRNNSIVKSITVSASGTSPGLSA

GACGATAGCGGTGACGGCACAGACGTCCCGCATCCTCCG (ssDNA, 5'-NH2) [CEA DNA aptamer]: binds.
